Laboratory results taken from EP4786489A1, “IL-22 MUTANT, PREPARATION METHOD THEREFOR, AND USE THEREOF” (Nanjing Novoacine Biotechnology Co., Ltd., priority 2023, dated 2025).

Columns and labels:
[1] = test system: SAA; experiment: Mouse PD preference study: plasma SAA; assay type: in vivo, mice; conditions: at equivalent or superior Reg3β Cmax: 60K-PEG-IL22-D109C 0.1 mg/kg vs 60K-PEG-IL22-P120C 0.3 mg/kg vs IL-22-Fc 1 mg/kg, s.c.
Description: Based on the in vitro preference results and preliminary PD screening results, the molecules 60k-PEG-IL22-D109C and 60k-PEG-IL22-P120C were selected. PD testing was performed in three mice per dose group at different dose levels according to the method described in Example 14, including the pharmacodynamic-related molecule Reg3β and the inflammation-related molecule SAA. The control was IL-22-Fc. Blood samples were collected before dosing and at 4, 24, 48, 72, 96, 144, 192, 264, and 336 hours after dosing. Plasma was separated using anticoagulated blood samples. For the control molecules wt IL-22 and hB3-his, samples were collected only up to 96 hours.
The detection method for SAA was as follows: a kit containing detecting antibody pairs and positive controls (Abcam, Ab216059) was used to detect SAA concentrations in appropriately diluted plasma samples. The assay was performed according to the manufacturer's instructions. Sa-HRP (Pierce 21126) was used for conjugation. After washing, tetramethylbenzidine peroxidase substrate (TMB, Surmodics, TMBS-1000-01) was added for color development for 10 minutes. The reaction was terminated with 2 M sulfuric acid, and the plate was read at 450 nm with 630 nm as the reference using a microplate reader. SAA was measured before dosing and at 24, 48, 72, 96, and 144 hours after dosing. The original SAA concentration in each sample was calculated. […]

[2] = Mouse PK, plasma concentration by ELISA; assay type: in vivo; conditions: single s.c. 1 mg/kg, male Balb/C mice
Description: Male Balb/C mice (n = 4 per group) were administered a single subcutaneous injection at a dose of 1 mg/kg. Blood samples were collected before dosing and at 4 (no samples were collected at this time point for 60k-PEG-IL22-D109C and 60k-PEG-IL22-P120C), 8, 24, […], 48, 72, 96, and 120 hours after dosing. Anticoagulated blood was used to prepare plasma.
The concentrations of each test candidate in plasma were quantified by ELISA. Anti-IL22 Antibody (Sino Biological, 13059-MM24), diluted in PBS to 2 µg/mL, was used for coating. Standard curves of each test candidate and plasma samples were diluted to fall within the linear range of detection. Recombinant Anti-IL22 Antibody (Sino Biological, 13059-R034-H) was used for detection. The original concentration of each test candidate in the samples was calculated using a four-parameter fit of the standard curve for each test candidate. Pharmacokinetic parameters of each test candidate in mouse plasma were analyzed (Figure 12). Table 13. Dosing information for the mouse PK study

[3] = test system: ear skin inflammation; conditions: mouse, in vivo

B1: 60K-PEG-IL22-P120C: IL-22 cysteine mutant, conjugation site 87, PEG-maleimide 60kD (conjugate)
chain: APISSHCRLDKSNFQQPYITNRTFMLAKEASLADNNTDVRLIGEKLFHGVSMSERCYLMKQVLNFTLEEVLFPQSDRFQPYMQEVVCFLARLSNRLSTCHIEGDDLHIQRNVQKLKDTVKKLGESGEIKAIGELDLLFMSLRNACI
With B1 the “SAA Cmax compared with IL-22-Fc” value [1] was “significantly lower”, the “AUClast” value [2] was 105.2029 µg·h/mL and the “Cmax” value [2] was 4184.95 ng/mL. For the same molecule, the “MRT” value [2] was 20.17 h, the “T1/2” value [2] was 11.62 h and the “equivalent dose required to induce a comparable overall increase in ear thickness, relative to IL-22-Fc” value [3] was “approximately 8 fold”.
